The chains are these.
B1: scDb/scFv-Fc (1-2)+3, trivalent trispecific anti-EGFRxanti-HER3×anti-CD3 (other)
chain 1: QVQLQQSGPGLVKPSQTLSLTCAISGDSVSSNRAAWNWIRQSPSRGLEWLGRTYYRSKWYNDYAQSLKSRITINPDTPKNQFSLQLNSVTPEDTAVYYCARDGQLGLDALDIWGQGTMVTVSSGGGGSDIQMTQSPSSLSASVGDRVTITCRASQDIRNYLNWYQQKPGKAPKLLIYYTSRLHSGVPSRFSGSGSGTDFTFTISSLQPEDIATYYCQQGNTLPWTFGQGTKLEIKRGGGGSGGGGSGGGGSQVQLVQSGAEVKKPGSSVKVSCKASGGTFSGYTMNWVRQAPGQGLEWMGLINPYKGVSTYNGKFKDRVTITADKSTSTAYMELSSLRSEDTAVYYCARSGYYGDSDWYFDVWGQGTLVTVSSGGGGSQAGLTQPPAVSVAPGQTASITCGRDNIGSRSVHWYQQKPGQAPVLVVYDDSDRPAGIPERFSGSNYENTATLTISRVEAGDEADYYCQVWGITSDHVVFGGGTKLTVLAAADKTHTCPPCPAPPVAGPSVFLFPPKPKDTLMISRTPEVTCVVVDVSHEDPEVKFNWYVDGVEVHNAKTKPREEQYNSTYRVVSVLTVLHQDWLNGKEYKCKVSNKGLPSSIEKTISKAKGQPREPQVCTLPPSRDELTKNQVSLSCAVKGFYPSDIAVEWESNGQPENNYKTTPPVLDSDGSFFLVSKLTVDKSRWQQGNVFSCSVMHEALHNHYTQKSLSLSPGK
chain 2: EVQLVESGGGLVQPGGSLRLSCAASGFSLTNYGVHWVRQAPGKGLEWLGVIWSGGNTDYNTPFTSRFTISRDNSKNTLYLQMNSLRAEDTAVYYCARALTYYDYEFAYWGQGTTVTVSSGGGGSGGGGSGGGGSDIQLTQSPSFLSASVGDRVTITCRASQSIGTNIHWYQQKPGKAPKLLIKYASESISGVPSRFSGSGSGTEFTLTISSLQPEDFATYYCQQNNNWPTTFGAGTKLEIKRAAADKTHTCPPCPAPPVAGPSVFLFPPKPKDTLMISRTPEVTCVVVDVSHEDPEVKFNWYVDGVEVHNAKTKPREEQYNSTYRVVSVLTVLHQDWLNGKEYKCKVSNKGLPSSIEKTISKAKGQPREPQVYTLPPCRDELTKNQVSLWCLVKGFYPSDIAVEWESNGQPENNYKTTPPVLDSDGSFFLYSKLTVDKSRWQQGNVFSCSVMHEALHNHYTQKSLSLSPGK
notes: Trispecific antibody: 1 = HER3 (3-43), 2 = CD3 (huU3), 3 = EGFR (hu225); also called scDb3-43xhuU3-Fc(hole)Δab + scFvhu225-Fc(knob)Δab
B2: scDb/scFv-Fc (2-1)+3, trivalent trispecific anti-EGFRxanti-HER3×anti-CD3 (other)
chain 1: QVQLVQSGAEVKKPGSSVKVSCKASGGTFSGYTMNWVRQAPGQGLEWMGLINPYKGVSTYNGKFKDRVTITADKSTSTAYMELSSLRSEDTAVYYCARSGYYGDSDWYFDVWGQGTLVTVSSGGGGSQAGLTQPPAVSVAPGQTASITCGRDNIGSRSVHWYQQKPGQAPVLVVYDDSDRPAGIPERFSGSNYENTATLTISRVEAGDEADYYCQVWGITSDHVVFGGGTKLTVLGGGGSGGGGSGGGGSQVQLQQSGPGLVKPSQTLSLTCAISGDSVSSNRAAWNWIRQSPSRGLEWLGRTYYRSKWYNDYAQSLKSRITINPDTPKNQFSLQLNSVTPEDTAVYYCARDGQLGLDALDIWGQGTMVTVSSGGGGSDIQMTQSPSSLSASVGDRVTITCRASQDIRNYLNWYQQKPGKAPKLLIYYTSRLHSGVPSRFSGSGSGTDFTFTISSLQPEDIATYYCQQGNTLPWTFGQGTKLEIKRAAADKTHTCPPCPAPPVAGPSVFLFPPKPKDTLMISRTPEVTCVVVDVSHEDPEVKFNWYVDGVEVHNAKTKPREEQYNSTYRVVSVLTVLHQDWLNGKEYKCKVSNKGLPSSIEKTISKAKGQPREPQVCTLPPSRDELTKNQVSLSCAVKGFYPSDIAVEWESNGQPENNYKTTPPVLDSDGSFFLVSKLTVDKSRWQQGNVFSCSVMHEALHNHYTQKSLSLSPGK
chain 2: B1 chain 2
notes: Trispecific antibody: 1 = HER3, 2 = CD3, 3 = EGFR; also called scDbhuU3x3-43-Fc(hole)Δab + scFvhu225-Fc(knob)Δab
B3: scDb/Fab-Fc (1-2)+3, trivalent trispecific anti-EGFRxanti-HER3×anti-CD3 (other)
chain: B1 chain 1
heavy: EVQLVESGGGLVQPGGSLRLSCAASGFSLTNYGVHWVRQAPGKGLEWLGVIWSGGNTDYNTPFTSRFTISRDNSKNTLYLQMNSLRAEDTAVYYCARALTYYDYEFAYWGQGTTVTVSSASTKGPSVFPLAPSSKSTSGGTAALGCLVKDYFPEPVTVSWNSGALTSGVHTFPAVLQSSGLYSLSSVVTVPSSSLGTQTYICNVNHKPSNTKVDKKVEPKSCGTDKTHTCPPCPAPPVAGPSVFLFPPKPKDTLMISRTPEVTCVVVDVSHEDPEVKFNWYVDGVEVHNAKTKPREEQYNSTYRVVSVLTVLHQDWLNGKEYKCKVSNKGLPSSIEKTISKAKGQPREPQVYTLPPCRDELTKNQVSLWCLVKGFYPSDIAVEWESNGQPENNYKTTPPVLDSDGSFFLYSKLTVDKSRWQQGNVFSCSVMHEALHNHYTQKSLSLSPGK
light: DIQLTQSPSFLSASVGDRVTITCRASQSIGTNIHWYQQKPGKAPKLLIKYASESISGVPSRFSGSGSGTEFTLTISSLQPEDFATYYCQQNNNWPTTFGAGTKLEIKRTVAAPSVFIFPPSDEQLKSGTASVVCLLNNFYPREAKVQWKVDNALQSGNSQESVTEQDSKDSTYSLSSTLTLSKADYEKHKVYACEVTHQGLSSPVTKSFNRGEC
notes: Trispecific antibody: 1 = HER3, 2 = CD3, 3 = EGFR; also called scDb3-43xhuU3-Fc(hole)Δab + Fdhu225-Fc(knob)Δab + VLhu225-CLκ
B4: scDb/Fab-Fc (2-1)+3, trivalent trispecific anti-EGFRxanti-HER3×anti-CD3 (other)
chain: B2 chain 1
heavy: B3 heavy
light: B3 light
notes: Trispecific antibody: 1 = HER3, 2 = CD3, 3 = EGFR; also called scDbhuU3x3-43-Fc(hole)Δab + Fdhu225-Fc(knob)Δab + VLhu225-CLκ
B5: scDb/scFv-Fc (1-3)+2, trivalent trispecific anti-EGFRxanti-HER3×anti-CD3 (other)
chain 1: EVQLVESGGGLVQPGGSLRLSCAASGFSLTNYGVHWVRQAPGKGLEWLGVIWSGGNTDYNTPFTSRFTISRDNSKNTLYLQMNSLRAEDTAVYYCARALTYYDYEFAYWGQGTTVTVSSGGGGSQAGLTQPPAVSVAPGQTASITCGRDNIGSRSVHWYQQKPGQAPVLVVYDDSDRPAGIPERFSGSNYENTATLTISRVEAGDEADYYCQVWGITSDHVVFGGGTKLTVLGGGGSGGGGSGGGGSQVQLQQSGPGLVKPSQTLSLTCAISGDSVSSNRAAWNWIRQSPSRGLEWLGRTYYRSKWYNDYAQSLKSRITINPDTPKNQFSLQLNSVTPEDTAVYYCARDGQLGLDALDIWGQGTMVTVSSGGGGSDIQLTQSPSFLSASVGDRVTITCRASQSIGTNIHWYQQKPGKAPKLLIKYASESISGVPSRFSGSGSGTEFTLTISSLQPEDFATYYCQQNNNWPTTFGAGTKLEIKRAAADKTHTCPPCPAPPVAGPSVFLFPPKPKDTLMISRTPEVTCVVVDVSHEDPEVKFNWYVDGVEVHNAKTKPREEQYNSTYRVVSVLTVLHQDWLNGKEYKCKVSNKGLPSSIEKTISKAKGQPREPQVCTLPPSRDELTKNQVSLSCAVKGFYPSDIAVEWESNGQPENNYKTTPPVLDSDGSFFLVSKLTVDKSRWQQGNVFSCSVMHEALHNHYTQKSLSLSPGK
chain 2: DIQMTQSPSSLSASVGDRVTITCRASQDIRNYLNWYQQKPGKAPKLLIYYTSRLHSGVPSRFSGSGSGTDFTFTISSLQPEDIATYYCQQGNTLPWTFGQGTKLEIKRGGGGSGGGGSGGGGSQVQLVQSGAEVKKPGSSVKVSCKASGGTFSGYTMNWVRQAPGQGLEWMGLINPYKGVSTYNGKFKDRVTITADKSTSTAYMELSSLRSEDTAVYYCARSGYYGDSDWYFDVWGQGTLVTVSSAAADKTHTCPPCPAPPVAGPSVFLFPPKPKDTLMISRTPEVTCVVVDVSHEDPEVKFNWYVDGVEVHNAKTKPREEQYNSTYRVVSVLTVLHQDWLNGKEYKCKVSNKGLPSSIEKTISKAKGQPREPQVYTLPPCRDELTKNQVSLWCLVKGFYPSDIAVEWESNGQPENNYKTTPPVLDSDGSFFLYSKLTVDKSRWQQGNVFSCSVMHEALHNHYTQKSLSLSPGK
notes: Trispecific antibody: 1 = HER3, 2 = CD3, 3 = EGFR; also called scDbhu225x3-43-Fc(hole)Δab + scFvhuU3-Fc(knob)Δab
B6: scDb/Fab-Fc (1-3)+2, trivalent trispecific anti-EGFRxanti-HER3×anti-CD3 (other)
chain: B5 chain 1
heavy: QVQLVQSGAEVKKPGSSVKVSCKASGGTFSGYTMNWVRQAPGQGLEWMGLINPYKGVSTYNGKFKDRVTITADKSTSTAYMELSSLRSEDTAVYYCARSGYYGDSDWYFDVWGQGTLVTVSSASTKGPSVFPLAPSSKSTSGGTAALGCLVKDYFPEPVTVSWNSGALTSGVHTFPAVLQSSGLYSLSSVVTVPSSSLGTQTYICNVNHKPSNTKVDKKVEPKSCDKTHTCPPCPAPPVAGPSVFLFPPKPKDTLMISRTPEVTCVVVDVSHEDPEVKFNWYVDGVEVHNAKTKPREEQYNSTYRVVSVLTVLHQDWLNGKEYKCKVSNKGLPSSIEKTISKAKGQPREPQVYTLPPCRDELTKNQVSLWCLVKGFYPSDIAVEWESNGQPENNYKTTPPVLDSDGSFFLYSKLTVDKSRWQQGNVFSCSVMHEALHNHYTQKSLSLSPGK
light: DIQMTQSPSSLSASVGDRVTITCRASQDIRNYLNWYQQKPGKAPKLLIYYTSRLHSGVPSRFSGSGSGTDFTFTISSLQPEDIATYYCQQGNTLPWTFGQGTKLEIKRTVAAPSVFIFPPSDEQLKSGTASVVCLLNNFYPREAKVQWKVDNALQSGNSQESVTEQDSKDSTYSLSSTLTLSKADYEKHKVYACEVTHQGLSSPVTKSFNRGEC
notes: Trispecific antibody: 1 = HER3, 2 = CD3, 3 = EGFR; also called scDbhu225x3-43-Fc(hole)Δab + FdhuU3-Fc(knob)Δab + VLhuU3-CLK

This assay addresses T1, CD3 (UniProt P07766 23-207).
T1 construct: whole, on cells; on cells it stands in the TCR/CD3 complex; also called CD3 on Jurkat cells
Briefly: flow cytometry, serial dilution on Jurkat cells (CD3-expressing), PE anti-human Fc detection, n = 1. On the procedure:
Trivalent, trispecific antibodies were analyzed for their binding to tumor cell lines with different EGFR- and HER3-expression levels (Table 14) by flow cytometry. Adherent cells were washed with PBS and shortly trypsinized at 37° C. Trypsin was quenched with FCS-containing medium and removed by centrifugation (500×g, 5 min.). 1×10⁵ target cells/well (FaDu, LIM1215, SKBR-3, T-47-D, MCF-7 and Jurkat cells) were incubated with a serial dilution of trivalent, trispecific antibodies for 1 h at 4° C. After removing excess of recombinant protein by washing with PBA (PBS, 2% FBS, and 0.02% sodium azide), bound protein was detected using PE-conjugated anti-human Fc mAb (Jackson ImmunoResearch Laboratories Inc). Fluorescence was measured using MACSquant VYB (Miltenyi Biotec) and data were analyzed using FlowJo (Tree Star). Relative median fluorescence intensities (MFI) were calculated as followed: relative MFI=((MFIₛₐₘₚₗₑ-(MFIdetection-MFIcells))/MFIcells).
As a reminder, the EC50 is the concentration giving half of the maximal effect. Molecule B1 showed an EC50 of 1.6 nM.

In the case of B2, the EC50 amounted to 2.6 nM.

With B3, the EC50 came out at 0.8 nM.

Molecule B4 returned an EC50 of 1.1 nM.

Regarding B5, it took 0.6 nM to reach a half-maximal effect (EC50).

Take B6: the EC50 is 0.8 nM.

(Values after patent US20220396635A1 (UNIVERSIT T STUTTGART, published 2022).)
